Measured values: US20260166139A1 (AKESO BIOPHARMA, published 2026)

T1: human CTLA4 (human, UniProt P16410 36-161, limits assumed)
T1 construct: also called human CTLA4 antigen; CTLA4 protein
T1 sequence (looked up): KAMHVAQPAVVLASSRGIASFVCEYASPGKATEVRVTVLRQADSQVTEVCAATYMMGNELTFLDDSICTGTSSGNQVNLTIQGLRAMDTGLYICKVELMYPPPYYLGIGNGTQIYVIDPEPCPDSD

T2: CTLA4 antigen (NCBI Gene ID: 1493) obtained by TEV protease cleavage of CTLA4-mFc (Homo sapiens (Human), UniProt P16410 37-161)
T2 construct: also called the antigen CTLA4
T2 sequence: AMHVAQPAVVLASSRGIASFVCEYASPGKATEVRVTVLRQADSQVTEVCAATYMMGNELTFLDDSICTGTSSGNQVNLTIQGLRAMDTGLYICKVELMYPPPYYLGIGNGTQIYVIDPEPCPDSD

T3: CTLA4 antigen on the surface of 293F-CTLA4 host cells (UniProt P16410 36-223, limits assumed)
T3 construct: whole, on cells
T3 sequence (looked up): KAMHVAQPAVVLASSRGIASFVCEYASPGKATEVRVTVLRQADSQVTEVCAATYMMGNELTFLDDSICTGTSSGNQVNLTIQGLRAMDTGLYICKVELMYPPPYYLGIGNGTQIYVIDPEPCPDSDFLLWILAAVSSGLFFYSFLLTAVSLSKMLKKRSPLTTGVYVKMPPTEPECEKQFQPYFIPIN

B1: humanized antibody 8D2H2L15 (antibody, V domains shown)
VH: EVQLVESGGGLVQPGGSMRLSCAASGFTFSDNWMNWVRQAPGKGLEWLAQIRNKPYNYETYYSASVKGRFTISRDDSKNSVYLQMNSLKTEDTGVYYCTAQFAYWGQGTLVTVSS
VL: DIQMTQSPSSLSASVGDRVTITCRTSENIYGGLNWYQRKPGKSPKLLIYGATNLASGVSSRFSGSGSGTDYTLTISSLQPEDVATYYCQNVLSRHPGFGSGTKLEIK
B2: humanized antibody 8D2H2L2 (antibody, V domains shown)
VH: EVQLVESGGGLVQPGGSMRLSCAASGFTFSDNWMNWVRQAPGKGLEWLAQIRNKPYNYETYYSASVKGRFTISRDDSKNSVYLQMNSLKTEDTGVYYCTAQFAYWGQGTLVTVSS
VL: DIQMTQSPSSLSASVGDRVTITCRTSENIYGGLNWYQRKPGKSPKLLIYGATNLASGVSSRFSGSGSGTDYTLTISSLQPEDVATYYCQNVLRSPFTFGSGTKLEIK
notes: also called 8D2H2L2(20150327); 8D2H2L2(20140422)
B3: humanized antibody 8D2H2L17 (antibody, V domains shown)
VH: EVQLVESGGGLVQPGGSMRLSCAASGFTFSDNWMNWVRQAPGKGLEWLAQIRNKPYNYETYYSASVKGRFTISRDDSKNSVYLQMNSLKTEDTGVYYCTAQFAYWGQGTLVTVSS
VL: DIQMTQSPSSLSASVGDRVTITCRTSENIYGGLNWYQRKPGKSPKLLIYGATNLASGVSSRFSGSGSGTDYTLTISSLQPEDVATYYCQNVLSSRPGFGSGTKLEIK
B4: humanized antibody 8D2H1L1 (antibody, V domains shown)
VH: EVQLVESGGGLVQPGGSMRLSCAASGFTFSDNWMNWVRQAPGKGLEWLAQIRNKPYNYETYYSDSVKGRFTISRDDSKNSVYLQMNSLKTEDTGVYYCTAQFAYWGQGTLVTVSS
VL: DIQMTQSPSSLSASVGDRVTITCRTSENIYGGLNWYQRKQGKSPKLLIYGATNLASGMSSRFSGSGSGTDYTLKISSLHPDDVATYYCQNVLRSPFTFGSGTKLEIK
B5: humanized antibody 8D2H3L3 (antibody, V domains shown)
VH: EVQLVESGGGLVQPGGSLRLSCAASGFTFSDNWMNWVRQAPGKGLEWVAQIRNKPYNYETEYAASVKGRFTISRDDSKNSAYLQMNSLKTEDTAVYYCTAQFAYWGQGTLVTVSS
VL: DIQMTQSPSSLSASVGDRVTITCRASENIYGGLNWYQQKPGKAPKLLIYGATSLASGVPSRFSGSGSGTDYTLTISSLQPEDFATYYCQNVLRSPFTFGSGTKLEIK
B6: humanized antibody 8D2H3L3 (antibody, V domains shown)
VH: EVQLVESGGGLVQPGGSLRLSCAASGFTFSDNWMNWVRQAPGKGLEWVAQIRNKPYNYETEYAASVKGRFTISRDDSKNSAYLQMNSLKTEDTAVYYCTAQFAYWGQGTLVTVSS
VL: DIQMTQSPSSLSASVGDRVTITCRASENIYGGLNWYQQKPGKAPKLLIYGATSLASGVPSRFSGSGSGTDYTLTISSLQPEDFATYYCQNVLRSPFTFGSGTKLEIK
B7: 8D2 recombinant antibody, 8D2(Re) (antibody, V domains shown)
VH: EVKLDETGGGLVQPGRPMKLSCVASGFTFSDNWMNWVRQSPEKGLEWLAQIRNKPYNYETYYSDSVKGRFTISRDDSKSSVYLQMNNLRGEDMGIYYCTAQFAYWGQGTLVTVSA
VL: DIQMTQSPASLSASVGETVTITCGTSENIYGGLNWYQRKQGKSPQLLIFGATNLADGMSSRFSGSGSGRQYSLKISSLHPDDVATYYCQNVLRSPFTFGSGTKLEI
B8: monoclonal antibody 8D2 (antibody, V domains shown)
VH: EVKLDETGGGLVQPGRPMKLSCVASGFTFSDNWMNWVRQSPEKGLEWLAQIRNKPYNYETYYSDSVKGRFTISRDDSKSSVYLQMNNLRGEDMGIYYCTAQFAYWGQGTLVTVSA
VL: DIQMTQSPASLSASVGETVTITCGTSENIYGGLNWYQRKQGKSPQLLIFGATNLADGMSSRFSGSGSGRQYSLKISSLHPDDVATYYCQNVLRSPFTFGSGTKLEI
notes: Murine antibody purified from hybridoma supernatant; also called mAb 8D2; antibody secreted by the CTLA4-8D2 hybridoma cell line LT001
B9: 8D2 recombinant antibody, 8D2(Re) (antibody, V domains shown)
VH: EVKLDETGGGLVQPGRPMKLSCVASGFTFSDNWMNWVRQSPEKGLEWLAQIRNKPYNYETYYSDSVKGRFTISRDDSKSSVYLQMNNLRGEDMGIYYCTAQFAYWGQGTLVTVSA
VL: DIQMTQSPASLSASVGETVTITCGTSENIYGGLNWYQRKQGKSPQLLIFGATNLADGMSSRFSGSGSGRQYSLKISSLHPDDVATYYCQNVLRSPFTFGSGTKLEI

Experiments:
[1] = target: T1, human CTLA4; assay: ELISA on coated CTLA4, source Human
Protocol: (§1) The ELISA plate was coated with CTLA4 at 4° C. over night. […] The enzyme conjugated secondary antibody was added for incubation for 30 min. Then, the absorbance at 450 nm was determined on an ELISA plate reader.

[2] = target: T2, CTLA4 antigen (NCBI Gene ID: 1493) …; assay: BLI (Fortebio), antibody on AR2G sensor, CTLA4 in solution
Protocol: 2. […] After equilibration in PBST, the CTLA4 antigen was added for binding. […] Dissociation occurred in PBST.

[3] = target: T4, CTLA4-mFc; assay: competitive ELISA, competitor B7-1; third of three tests
T4 construct: also called CTLA4ECD-mFc fusion protein; CTLA4 antigen
Protocol: (§2) After incubation at 37° C. for 40 minutes, the enzyme conjugated secondary antibody was added. After incubation at 37° C. for 30 minutes, the absorbance at 450 nm was detected on an ELISA plate reader.

[4] = target: T4, CTLA4-mFc; assay: competitive ELISA, competitor B7-2; first of three tests
Protocol: as §2

[5] = target: T4, CTLA4-mFc; assay: competitive ELISA, competitor B7-2; third of three tests
Protocol: as §2

[6] = target: T4, CTLA4-mFc; assay: competitive ELISA, competitor B7-1; second of three tests
Protocol: as §2

[7] = target: T4, CTLA4-mFc; assay: competitive ELISA, competitor B7-2; second of three tests
Protocol: as §2

[8] = target: T4, CTLA4-mFc; assay: competitive ELISA, CTLA4-mFc coated, competitor B7/2-His; antibody 1 µg/ml
Protocol: as §2

[9] = target: T4, CTLA4-mFc; assay: competitive ELISA, competitor B7-1; first of three tests; competitor B7-1; first of three tests, the run with controls 10D1 5.15 nM and 11.2.1 1.073 nM
Protocol: as §2

[10] = target: T4, CTLA4-mFc; assay: competitive ELISA, competitor B7-1
Protocol: as §2
Target sequence in this assay (chain, as listed by the source limits assumed): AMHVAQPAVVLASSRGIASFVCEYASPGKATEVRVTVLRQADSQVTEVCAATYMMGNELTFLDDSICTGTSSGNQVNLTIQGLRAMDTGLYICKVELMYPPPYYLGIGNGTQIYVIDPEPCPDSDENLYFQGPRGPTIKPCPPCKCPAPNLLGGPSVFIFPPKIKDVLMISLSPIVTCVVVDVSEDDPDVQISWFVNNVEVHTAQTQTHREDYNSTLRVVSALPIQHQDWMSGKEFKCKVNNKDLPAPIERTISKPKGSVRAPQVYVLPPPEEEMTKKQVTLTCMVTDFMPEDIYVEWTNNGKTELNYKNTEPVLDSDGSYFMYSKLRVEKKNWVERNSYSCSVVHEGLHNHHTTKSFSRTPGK

[11] = target: T4, CTLA4-mFc; assay: competitive ELISA, competitor B7-2
Protocol: as §2
Target sequence in this assay (chain, as listed by the source limits assumed): as above

[12] = target: T3, CTLA4 antigen on the surface of …; assay: flow cytometry, 293F-CTLA4 cells
Protocol: (§3) After addition of 300 μL PBS, the fluorescent signal was detected using the FITC channel on the flow cytometer.

[13] = target: T5, monkey CTLA4-hFc (monkey); assay: ELISA on coated CTLA4, source Monkey
T5 construct: also called monkey CTLA4 antigen
Protocol: as §1

[14] = target: T3, CTLA4 antigen on the surface of …; assay: flow cytometry, 293F-CTLA4 cells; antibody 1 nM
Protocol: as §3

[15] = target: T3, CTLA4 antigen on the surface of …; assay: flow cytometry, 293F-CTLA4 cells; antibody 5 nM
Protocol: as §3

[16] = target: T3, CTLA4 antigen on the surface of …; assay: flow cytometry, 293F-CTLA4 cells; antibody 10 nM
Protocol: as §3

[17] = target: T3, CTLA4 antigen on the surface of …; assay: flow cytometry, 293F-CTLA4 cells; antibody 25 nM
Protocol: as §3

[18] = target: T3, CTLA4 antigen on the surface of …; assay: flow cytometry, 293F-CTLA4 cells; antibody 0.1 nM
Protocol: as §3

[19] = target: T3, CTLA4 antigen on the surface of …; assay: flow cytometry, 293F-CTLA4 cells; antibody 0.01 nM
Protocol: as §3

[20] = target: T3, CTLA4 antigen on the surface of …; assay: flow cytometry, 293F-CTLA4 cells; antibody 0.001 nM
Protocol: as §3

Binder | EC50 [1] [nM] | Kd [2] [nM] | koff [2] [s⁻¹] | kon [2] [M⁻¹ s⁻¹] | EC50 [10] [nM] | EC50 [11] [nM] | EC50 [12] [nM] | fluorescence intensity [14] | fluorescence intensity [15] | fluorescence intensity [16] | fluorescence intensity [17] | fluorescence intensity [18] | fluorescence intensity [19] | fluorescence intensity [20] | other results
B1 | 0.042 | 1.02 | 0.000465 | 454000 | – | – | – | – | – | – | – | – | – | – | –
B2 | – | – | – | – | – | – | – | – | – | – | – | – | – | – | EC50 [3]: 3.12 nM; EC50 [4]: 1.64 nM; EC50 [5]: 0.301 nM; EC50 [6]: 2.97 nM; EC50 [7]: 0.368 nM; absorbance at 450 nm [8]: 0.05; EC50 [9]: 5.93 nM
B3 | 0.047 | 0.766 | 0.000352 | 459000 | – | – | – | – | – | – | – | – | – | – | –
B4 | – | – | – | – | 2.48 | 0.178 | – | – | – | – | – | – | – | – | –
B5 | – | – | – | – | 2.14 | 0.167 | – | – | – | – | – | – | – | – | –
B6 | 0.129 | 1.05 | 0.000327 | 312000 | – | – | 4.54 | 623 | 971 | 1080 | 1090 | 108 | 25.1 | 10.8 | EC50 [13]: 0.385 nM
B7 | – | – | – | – | 0.514 | 0.153 | – | – | – | – | – | – | – | – | –
B8 | – | 0.166 | 2.36e-05 | 142000 | – | – | 3.84 | 25.5 | 183 | 639 | 722 | 9.1 | 7.7 | 7.6 | –
B9 | – | – | – | – | – | – | 1.38 | 321 | 714 | 898 | 873 | 66.7 | 24.7 | 24.6 | –
